Assay results from US20210156867A1 (YEDA RESEARCH AND DEVELOPMENT, published 2021).

Columns and labels:
[1] = target: T1, recombinant human B-cell lymphoma protein 2 alpha His-Tag (Bcl-2) (human, UniProt P10415 1-211, limits assumed); assay: fluorescence displacement assay: emission of the His-Bcl-2-compound 5 sensor complex (200 nM) after adding 800 nM protein
T1 construct: In the assay it was in complex with the Ni-NTA sensor compound 5; also called His-Bcl-2; not shown: His-tag

[2] = target: T1, recombinant human B-cell lymphoma …; assay: fluorescence displacement assay: emission of the His-Bcl-2-compound 5 sensor complex (200 nM) after adding 800 nM peptide
Procedure: Fluorescence measurements were performed in triplicate. The emission intensities before the addition of each protein were normalized to 100*14 (FIG. 27b).

[3] = target: T2, mouse recombinant His-calmodulin, calcium-bound (mouse, UniProt P0DP26 1-149); assay: SPR, His-CaM immobilised on CM5 chip, analyte pre-incubated with 0.3 mM CaCl2
T2 construct: also called His-CaM(Ca^2+); His-CaM(Ca^+2)

T1 sequence (P10415 1-211 limits assumed): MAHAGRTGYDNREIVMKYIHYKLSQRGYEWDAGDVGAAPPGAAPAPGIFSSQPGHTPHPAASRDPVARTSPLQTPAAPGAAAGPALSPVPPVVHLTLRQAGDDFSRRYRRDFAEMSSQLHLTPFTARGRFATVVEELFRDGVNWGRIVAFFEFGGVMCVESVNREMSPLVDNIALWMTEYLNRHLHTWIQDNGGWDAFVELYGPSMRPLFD

Binder | binding result [1] | binding result [2] | Kd [3] [nM]
GST-P1 (enzyme, human, UniProt P09211 1-210, looked up, recombinant; also called human recombinant GST-P1-1) GST-P1 subunit: MPPYTVVYFPVRGRCAALRMLLADQGQSWKEEVVTVETWQEGSLKASCLYGQLPKFQDGDLTLYQSNTILRHLGRTLGLYGKDQQEAALVDMVNDGVEDLRCKYISLIYTNYEAGKDDYVKALPGQLKPFETLLSQNQGGKTFIVGDQISFADYNLLDLLLIHEVLAPGCLDAFPLLSAYVGRLSARPKLKAFLASPEYVNLPINGNGKQ | no binding (tested: 800 nM) | – | –
KRRWKKNFIAVSAANRFKKISSSGAL (peptide, UniProt P07313 578-603, looked up, check before use) | – | no binding (tested: 800 nM) | 8.8
